Data published in US20030161832A1 (CORNELL RESEARCH FOUNDATION, published 2003).
Numbering of substitutions follows the chain as printed. One block for each binder: values may come before it.

Experiments:
[1] = molecular target: T1, prostate specific membrane antigen (PSMA), human (human, UniProt Q04609 1-750); assay: stated, method not described
T1 construct: whole, on cells; The target was native PSMA on LNCaP cells, in LNCaP membrane preparations (ELISA) or in frozen tissue sections (immunohistochemistry); also called human PSMA
T1 sequence (Q04609 whole entry): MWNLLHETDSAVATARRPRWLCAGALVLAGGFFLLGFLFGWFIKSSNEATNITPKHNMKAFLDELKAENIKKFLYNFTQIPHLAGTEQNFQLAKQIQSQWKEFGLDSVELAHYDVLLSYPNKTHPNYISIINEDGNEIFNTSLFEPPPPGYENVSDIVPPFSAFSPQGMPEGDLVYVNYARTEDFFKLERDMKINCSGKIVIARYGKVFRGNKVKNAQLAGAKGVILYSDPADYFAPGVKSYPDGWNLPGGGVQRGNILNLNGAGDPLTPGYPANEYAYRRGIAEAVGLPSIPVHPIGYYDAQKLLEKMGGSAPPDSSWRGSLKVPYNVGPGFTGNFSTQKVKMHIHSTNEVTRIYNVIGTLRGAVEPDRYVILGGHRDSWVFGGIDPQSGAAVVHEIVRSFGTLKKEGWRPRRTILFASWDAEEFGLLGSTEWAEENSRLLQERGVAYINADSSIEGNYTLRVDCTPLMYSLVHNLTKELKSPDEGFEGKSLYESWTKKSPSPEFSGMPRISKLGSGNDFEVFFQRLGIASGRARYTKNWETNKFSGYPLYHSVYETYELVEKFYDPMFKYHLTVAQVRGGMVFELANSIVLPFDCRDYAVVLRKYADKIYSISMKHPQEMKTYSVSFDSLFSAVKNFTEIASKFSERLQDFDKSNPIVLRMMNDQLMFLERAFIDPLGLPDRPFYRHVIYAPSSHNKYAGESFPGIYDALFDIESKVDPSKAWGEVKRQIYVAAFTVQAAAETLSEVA

[2] = molecular target: T1, prostate specific membrane antigen …; assay: ELISA on LNCaP membrane preparation
[3] = molecular target: T1, prostate specific membrane antigen …; assay: ELISA on LNCaP membrane preparation, purified antibody

B1: murine monoclonal antibody E99 (hybridoma ATCC HB-12101) (antibody, mouse IgG3, V domains shown)
VH: QVQLKESGPGLVASSQSLSITCTVSGFSLTAYGINWVRQPPGKGLEWLGVIWPDGNTDYNSTLKSRLNIFKDNSKNQVFLKMSSFQTDDTARYFCARDSYGNFKRGWFDFWGQGTTLTVSS
VL: NIVMTQSQKFMSTSPGDRVRVTCKASQNVGSDVAWYQAKPGQSPRILIYSTSYRYSGVPDRFTAYGSGTDFTLTITNVQSEDLTEYFCQQYNSYPLTFGAGTKLELK
notes: also called murine E99
- binding result [1]: binds

B2: murine monoclonal antibody J533 (hybridoma ATCC HB-12127) (antibody, mouse IgG1, V domains shown)
VH: EVQLQQSGPELVKPGASVKMSCKASGYTFTGYVMHWVKQKPGQVLEWIGYINPYNDVTRYNGKFKGKATLTSDKYSSTAYMELSGLTSEDSAVYYCARGENWYYFDSWGRGATLTVSS
VL: DIVLTQSPASLAVSLGQRATISCRASESIDSYDNTFMHWYQQKPGQPPNLLIFRASILESGIPARFSGSGSGTDFTLTIYPVEADDVATYYCHQSIEDPYTFGGGTKLEIK
notes: also called murine J533
- binding result [1]: binds

B3: deimmunized J415 antibody composed of heavy chain version 4 (J415DIVH4) and light chain version 5 (J415DIVK5) (antibody, V domains shown)
VH: EVKLEESGGGLVQPGGSMKISCVASGFTFSNYWMNWVRQSPEKGLEWVAEIRSQSNNFATHYAESVKGRVIISRDDSKSSVYLQMNSLRAEDTAVYYCTRRWNNFWGQGTTVTVSS
VL: NIVMTQFPKSMSASAGERMTLTCKASENVGTYVSWYQQKPTQSPKMLIYGASNRFTGVPDRFSGSGSGTDFILTISSVQAEDLVDYYCGQSYTFPYTFGGGTKLEMK
notes: also called DIVH4/DIVK5; deJ415
- binding result [2]: binds

B4: murine monoclonal antibody J415 (hybridoma ATCC HB-12109) (antibody, mouse IgG1, V domains shown)
VH: B3 VH with I20L, S87N, A94G, V95I, V112L
VL: B3 VL with A13I, A15V, M19V, T41E, S63T, G68A, A80T
notes: also called murine J415
- binding result [1]: binds

Continued, values first:

- fold less binding than the chimeric J415 antibody [3]: 2 fold
B5: deimmunized J415 antibody composed of heavy chain version 2 (J415DIVH2) and light chain version 5 (J415DIVK5) (antibody, V domains shown)
VH: B3 VH with S40T, E50L
VL: B3 VL
notes: also called DIVK5 combined with heavy chain version 2; J415DIVH2 + J415DIVK5

- binding result [2]: binds
B6: J415 chimeric antibody (murine variable heavy and light chain regions fused to human constant heavy and light chain regions) (antibody, V domains shown)
VH: B3 VH with I20L, S87N, A94G, V95I, V112L
VL: B3 VL with A13I, A15V, M19V, T41E, S63T, G68A, A80T
notes: also called the chimeric

- fold less binding than the chimeric J415 antibody [3]: 2 fold
B7: deimmunized J415 antibody composed of heavy chain version 1 (J415DIVH1) and light chain version 5 (J415DIVK5) (antibody, V domains shown)
VH: B3 VH with V23K, S40T, E50L
VL: B3 VL
notes: also called DIVK5 combined with heavy chain version 1; J415DIVH1 + J415DIVK5
